Reference: the supplement of paper PMC9112550, “Optimization of the antimicrobial peptide Bac7 by deep mutational scanning” (BMC Biology, 2022)

These sequences were tested on Escherichia coli TOP10 (assay: shrunken log2 fold change of peptide-encoding DNA abundance (4.5 h post-induction vs induction); higher = less antimicrobial activity (less host growth inhibition)). Conditions: time post-induction: 4.5 h; library: site-saturation at positions 5, 18, 19, 20.
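Note: peptides expressed intracellularly from a pBAD plasmid library in pooled LB shake-flask culture, induced with 0.3% L-arabinose, DNA abundance read by NGS, three biological replicates, DESeq2 with apeglm shrinkage.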

Row | Sequence | shrunken log2 fold change
1 | RRIRRRPPRLPRPRPRPFPNPRP | 0.558
2 | RRIRSRPPRLPRPRPRPMLLPRP | 3.53
3 | RRIRNRPPRLPRPRPRPDYTPRP | 0.115
4 | RRIRWRPPRLPRPRPRPWIAPRP | -0.11
5 | RRIRDRPPRLPRPRPRPYSGPRP | -0.035
6 | RRIRKRPPRLPRPRPRPFNAPRP | 0.0749
7 | RRIRCRPPRLPRPRPRPLISPRP | -0.3
8 | RRIRIRPPRLPRPRPRPGYMPRP | -0.442
9 | RRIRVRPPRLPRPRPRPPLPPRP | 0.325
10 | RRIRFRPPRLPRPRPRPTRMPRP | 0.762
11 | RRIRNRPPRLPRPRPRPLKMPRP | -0.136
12 | RRIRIRPPRLPRPRPRPWLWPRP | -0.0533
13 | RRIRDRPPRLPRPRPRPLPHPRP | -0.146
14 | RRIRIRPPRLPRPRPRPHKEPRP | 0.0692
15 | RRIRQRPPRLPRPRPRPQGKPRP | -0.0747
16 | RRIRERPPRLPRPRPRPKSWPRP | 0.715
17 | RRIRWRPPRLPRPRPRPQVRPRP | 0.037
18 | RRIRLRPPRLPRPRPRPSTNPRP | -0.451
19 | RRIRTRPPRLPRPRPRPCYQPRP | -0.335
20 | RRIRFRPPRLPRPRPRPGYGPRP | 0.019

Row | Sequence | shrunken log2 fold change
21 | RRIRWRPPRLPRPRPRPIEVPRP | 0.0279
22 | RRIRLRPPRLPRPRPRPTWLPRP | 0.584
23 | RRIRCRPPRLPRPRPRPYVLPRP | -0.903
24 | RRIRIRPPRLPRPRPRPGFDPRP | 0.027
25 | RRIRKRPPRLPRPRPRPDGKPRP | 0.0268
26 | RRIRFRPPRLPRPRPRPYKNPRP | -0.957
27 | RRIRWRPPRLPRPRPRPSAPPRP | 0.499
28 | RRIRLRPPRLPRPRPRPYSKPRP | -0.434
29 | RRIRMRPPRLPRPRPRPYSWPRP | -0.0788
30 | RRIRARPPRLPRPRPRPDWNPRP | 0.0789
31 | RRIRVRPPRLPRPRPRPRIDPRP | -0.216
32 | RRIRHRPPRLPRPRPRPTMKPRP | -0.585
33 | RRIRHRPPRLPRPRPRPFQFPRP | 0.0952
34 | RRIRQRPPRLPRPRPRPHVFPRP | -0.000919
35 | RRIRQRPPRLPRPRPRPTVSPRP | -0.14
36 | RRIRLRPPRLPRPRPRPMYSPRP | -0.364
37 | RRIRTRPPRLPRPRPRPECNPRP | 0.0232
38 | RRIRTRPPRLPRPRPRPAFIPRP | -0.512
39 | RRIRNRPPRLPRPRPRPRETPRP | -0.0277
40 | RRIRHRPPRLPRPRPRPMIHPRP | -0.382

Row | Sequence | shrunken log2 fold change
41 | RRIRSRPPRLPRPRPRPSNDPRP | -0.349
42 | RRIRERPPRLPRPRPRPTIYPRP | 0.00607
43 | RRIRPRPPRLPRPRPRPEYCPRP | -0.146
44 | RRIRVRPPRLPRPRPRPRYFPRP | -0.446
45 | RRIRKRPPRLPRPRPRPPGLPRP | 0.308
46 | RRIRVRPPRLPRPRPRPRVPPRP | -0.00723
47 | RRIRPRPPRLPRPRPRPMMMPRP | -0.167
48 | RRIRQRPPRLPRPRPRPWARPRP | -0.0405
49 | RRIRKRPPRLPRPRPRPDMEPRP | 0.092
50 | RRIRSRPPRLPRPRPRPQPEPRP | -0.279
51 | RRIRMRPPRLPRPRPRPVSRPRP | 0.796
52 | RRIRARPPRLPRPRPRPNVAPRP | 0.477
53 | RRIRWRPPRLPRPRPRPQETPRP | -0.00116
54 | RRIRRRPPRLPRPRPRPNLIPRP | -0.221
55 | RRIRARPPRLPRPRPRPEKFPRP | -0.0388
56 | RRIRTRPPRLPRPRPRPNMRPRP | 0.33
57 | RRIRNRPPRLPRPRPRPMNEPRP | 0.0961
58 | RRIRDRPPRLPRPRPRPPPSPRP | 0.838
59 | RRIRYRPPRLPRPRPRPEFAPRP | -0.167
60 | RRIRMRPPRLPRPRPRPEYYPRP | -0.218
